Experimental data reported in article PMC10606924, “Interactions of Nucleosomes with Acidic Patch-Binding Peptides: A Combined Structural Bioinformatics, Molecular Modeling, Fluorescence Polarization, and Single-Molecule FRET Study” (International Journal of Molecular Sciences, 2023).
Entries after “also recorded” stand apart in the source; their conditions may differ.

Legend:
[1] = target: nucleosome (H. sapiens canonical histone octamer on 147 bp Widom 603 DNA) (H. sapiens) (UniProt P04908); experiment: fluorescence polarisation; 100 nM FAM-LANA_(1-22) as tracer, nucleosome concentration varied by two-fold serial dilution, 30 min at +4 C; 10 mM TrisHCl pH 8.0, 200 uM EDTA, 5 mM 2-mercaptoethanol, 10 mM NaCl; simple direct binding model with identical, non-interacting sites
[2] = tested on: Cy3/Cy5-labeled mononucleosomes (603 DNA, 147 bp); experiment: Single-molecule FRET (spFRET) of nucleosome-peptide interactions; format: biochemical, H. sapiens; conditions: 10 μM peptide
From the text: Non-fluorescently labeled nuclesomal DNA fragments were obtained as follows. pUC57 plasmids containing eight repeats of the high-affinity 147 bp Widom 603 sequence were amplified in E. coli XL-10 stain and purified via alkaline lysis (see details in Supplementary Materials and Methods). The Widom 603 fragments were released via cleavage with EcoRV and separated from parent plasmid with polyethylene glycol precipitation in order to clear the vector backbone as described in [86]. Nucleosomal DNA fragments fluorescently labeled at the 35 and 112 bp positions were obtained following established protocols. […]
NCPs were reconstituted by mixing 147 bp Widom 603 DNA and histone octamers at a 1:1.15 molar ratio. […] Fluorescently labeled nucleosomes were detected by in-gel FRET using a Typhoon scanner (GE Healthcare, Chicago, IL, USA) with excitation at 532 nm laser and emission at 670 nm (FRET between Cy3 and Cy5) or 580 nm (Cy3 signal) (Supplementary Figure S5).
Single-particle FRET measurements were conducted with LSM710-Confocor3 laser scanning confocal microscope (Carl Zeiss, Jena, Germany) as described previously. […] To evaluate the level of background signal and reveal fluorescence bursts, spFRET data were analyzed using the FretBursts version 0.7.1 software. […]

[3] = tested on: FAM-LANA1-22 (Kaposi's sarcoma-associated herpesvirus); experiment: fluorescence polarization; conditions: FP: 10 mM Tris-HCl pH 8.0, 0.2 mM EDTA, 5 mM 2-mercaptoethanol, 10 mM NaCl, 30 min incubation at 4 C, EMSA: 6% PAGE, 10 mM HEPES-Na pH 8.0, 0.2 mM EDTA

Substance: FAM-labeled LANA_(1-22) peptide (from UniProt Q9QR71 1-22)
- Kd [1]: 0.4 µM

Substance: PNVRRSNRIRLKPLEYWRGERIDYQ [CENP-Cmotif, fragment of CENP-C protein (amino acids 710–734) from R. norvegicus]
- shift of EPR value distribution ([2]; 1 nM nucleosomes): shift of the EPR value distribution towards higher EPR values; also recorded: makes nucleosomes, on average, more compact
- effect on average nucleosome compactness, compared with LANA1-22 ([2]; spFRET): higher than that of LANA1-22; also recorded: makes nucleosomes more compact than LANA1-22, on average

Substance: Widom 603 nucleosome
- Kd [3]: 0.4 µM
